From the DeepSol protein solubility set come the findings set out here.

A short description of this data set: soluble on expression in E. coli; label from the status in PepcDB or PDB records.
“MLPEIWKHDSPYFRPEGDTRGEAVLPIGMPMRQQYDFSSSRKNPYAAKLKKPVTIRLDEESISYFKSMSEETGIPYQSLINLYLKECAASGKRLNLSWK”: the “soluble on expression in E. coli” value was “not soluble”.
The value for “MHHHHHHSSGVDLGTENLYFQSMWSVRPSDMAKKTFNPIRAIVDNMKVKPNPNKTMISLSIGDPTVFGNLPTDPEVTQAMKDALDSGKYNGYAPSIGFLSSREEIASYYHCPEAPLEAKDVILTSGCSQAIDLCLAVLANPGQNILVPRPGFSLYKTLAESMGIEVKLYNLLPEKSWEIDLKQLEYLIDEKTACLIVNNPSNPCGSVFSKRHLQKILAVAARQCVPILADEIYGDMVFSDCKYEPLATLSTDVPILSCGGLAKRWLVPGWRLGWILIHDRRDIFGNEIRDGLVKLSQRILGPCTIVQGALKSILCRTPGEFYHNTLSFLKSNADLCYGALAAIPGLRPVRPSGAMYLMVGIEMEHFPEFENDVEFTERLVAEQSVHCLPATCFEYPNFIRVVITVPEVMMLEACSRIQEFCEQHYHC” was “soluble”.
As for “MGSDKIHHHHHHMLQNPIHLRLERLESWQHVTFMACLCERMYPNYAMFCQQTGFGDGQIYRRILDLIWETLTVKDAKVNFDSQLEKFEEAIPSADDFDLYGVYPAIDACVALSELVHSRLSGETLEHAVEVSKTSITTVAMLEMTQAGREMSDEELKENPAVEQEWDIQWEIFRLLAECEERDIELIKGLRADLREAGESNIGIIFQQ”, the “soluble on expression in E. coli” value is reported as “not soluble”.
The value for “MGSDKIHHHHHHMTVWRFKKSQKGLVGVDITSATVKLIELESSGAGHRIASYAVRPLHEGAVVERRIRDLDEVANTLTRAVEHARPHSRRAVAAVPASAAITKTLTYPASLTDDEIEARIQLESERHIPFPLNEVAFDFQRLGLNARYPDQQDILLVACRLQDVDRLADVLRRAGLEPAAVDVETFAMERAAGELLLGQAASQPDDECVALVDIGANMNAFHVLIDGRIAYTRDNVLGGRHLTEEIRKRYGLSLEEAGLAKKRGGLPEDYELEVLTPYIDMLIQQVGRSLQLYYTSGKPRDIQRLVLAGGSSVIPGLRERLAAQSGLEVVMANPFSRMRVASRVDVQALASDAPAMLTACGLAMRGRR” was “not soluble”; that for “MKITTWNVNSLNVRLPQVQNLLADNPPDILVLQELKLDQDKFPAAALQMMGWHCVWSGQKTYNGVAIVSRSVPQDVHFGLPALPDDPQRRVIAATVSGVRVINVYCVNGEALDSPKFKYKEQWFAALTEFVRDEMTRHGKLVLLGDFNIAPADADCYDPEKWHEKIHCSSVERQWFQNLLDLGLTDSLRQVHPEGAFYTWFDYRGAMFQRKLGLRIDHILVSPAMAAALKDVRVDLETRALERPSDHAPVTAEFDW” was “soluble”; that for “MGMIVFVRFNSSYGFPVEVDSDTSILQLKEVVAKRQGVPADQLRVIFAGKELPNHLTVQNCDLEQQSIVHIVQRPRRR” was “soluble”.
With “MDNVTSSQLLSVRHQLAESAGLPRDQHEFVSSQAPQSLRNRYNNLYSHTQRTLDMADMQHRYMTGASGINPGMLPHENVDDMRSAITDWSDMREALQHAMGIHADIVDYKDDDDK”, the “soluble on expression in E. coli” value is given as “soluble”.
Take “MHPSLRYIQGYPQNIVEQVSSLVDNGKLIPWFEKRYPDRHQIKSEKALYEYAIAIKNRYMKKASPISKVVYDKKIHAVNNALGLHSVISRNHGGKLKSKNEIRIANVFKDAPEALLRMLVVHELAHTREKNHDKAFYQLCCYMEPEYHQLELDARLFMIYLDLKANSNEEQLEHHHHHH”: the “soluble on expression in E. coli” value is “soluble”.
Regarding “KQKVINVKEVRLSPTIEEHDFNTKLRNARKFLEKGDKVKATIRFKGRAITHKEIGQRVLDRLSEACADIAVVETAPKMDGRNMFLVLAPKNDNK”, the “soluble on expression in E. coli” value is on record as “soluble”.
Turning to “MRVSLFLQKQIIECSKAFQPHSTRLQWPKSQDKVFVAMSGGVDSSFSAYLLKSQGYNVEGVFMRNWLDEDSAPSGCPAERDWATVQKVCKKLNISCRRFNFEKEYWNLVFEPSLDLYENGLTPNPDVSCNRQVKFGALFDALKKHCENNVKGDWWLASGHYAKSVVNIETNESHMCIPTDKRKDQTLFLCTIRKEALEKTIFPLHNWTKENVKKQASSAGFKEIAEKQESQGLCFVSPNVGRKFRKFLQRYLNFSDRPIKVIAGKNVVGEFSGNHGIWSLTVGERCGLSLPQAQSEYFGRWYVWKKDIKNNALYICRGTNNELLMSKCIYLKDWKWCGTKLQNLEKSALSCFVRVRHQQPLQPAKVTWRNPESVKIHFQDKQRAVTPGQVIAVYVNDVCLGGGMVDTVEPEKDFD”, the “soluble on expression in E. coli” value is “soluble”.
With “MEAIDMPYKITALQPFGVIVEPKHAPIHVNELDIDELRELFLREQLVLLRGFETFEHSEQFADYCERWGEVSVWPFGRVLDLVQKEDPGDHIFDSSYMPMHWDGMYRPQVPEYQIFQCVKAPLPGHGGRTTFSHTMLALQHAPQPDLELWQQVTGHYQRKMEFYHSKTVSPIVMQHPYRDYQVIRYNEPHFEENGDLLNPPDVSLSGITPEQAIEFHKSLRRALYDPRNFYAHEWQTGDIVITDNFSLLHGREAFTSHTPRHIRRVQVLSNPPYNNPSLESYQCPQK” the entry was “not soluble”.
The value for GSSANDWQCKTCSNVNWARRSECNMCNTPKYAK was “soluble”.
With “MGSDKIHHHHHHMEITIFGKGNMGQAIGHNFEIAGHEVTYYGSKDQATTLGEIVIMAVPYPALAALAKQYATQLKGKIVVDITNPLNFDTWDDLVVPADSSAAQELQQQLPDSQVLKAFNTTFAATLQSGQVNGKEPTTVLVAGNDDSAKQRFTRALADSPLEVKDAGKLKRARELEAMGFMQMTLAASEQIGWTGGFAVVK” the entry was “not soluble”.
Consider “MQFWRKQMSEIQHFSQQDIEILGEQTLYEGFFTLKRIQFKHKLFAGGQSGVVTRELLIKGAASAVIAYDPKEDSVILVEQVRIGAAYHPESHRSPWLLELIAGMVEKGEKPEDVALRESEEEAGIQVKNLTHCLSVWDSPGGIVERIHLFAGEVDSAQAKGIHGLAEENEDIKVHVVKREQAYQWMCEGKIDNGIAVIGLQWLQLNYAQLQQSWKRS”, for which the “soluble on expression in E. coli” value was “not soluble”.
With “MSKDLVHPSLIRAGIVELEMAEETTDLINRTIESNQAHLQGEPLYVDSLPEDMSRLRIEDKSRRTKTEEEERDEGSSEEDNYLSEGQDPLIPFQNFLDEIGARAVKRLKTGEGFFRVWSALSDDIKGYVSTNIMTSGERDTKSIQIQTEPTASVSSGNESRHDSESMHDPNDKKDHTPDHDVVPDIESSTDKGEIRDIEGEVAHQVAESFSKKYKFPSRSSGIFLWNFEQLKMNLDDIVKAAMNVPGVERIAEKGGKLPLRCILGFVALDSSKRFRLLADNDKVARLIQEDINSYMARLEEAE” the entry was “soluble”; with “NILKIRCAPVTWPIGMGKNFKGVYHILNDEIYLFEAGGERLPHEFDIIKGIDNPELEQRFPLEIQQLRDEIELVQAASNEFNLDEFLAGELTPVFFGSAINNFGIQEILNSLIDWAPAPKPRDATVRMVEPDEPKFSGFIFKIQANMDPKHRDRIAFLRVCSGKFERGMKMKHLRINREIAASSVVTFMSHDRELVEEAYAGDIIGIPNHGNIQIGDSFSEGEQLAFTGIPFFAPELFRSVRIKNPLKIKQLQKGLQQLGEEGAVQVFKPMSGADLILGAVGVLQFEVVTSRLANEYGVEAVFDSASIWSARWVSCDDKKKLAEFEKANAGNLAIDAGGNLAYLAPNRVNLGLTQERWPDIVFHETREHSVKL”, “not soluble”; with “MVSSLFINPFSEDAREIVRKYGSLDTIDDTRDELLEIGRRTRGQNLADNSLLPASIAELAVKRLEWYLRRQRKDFNHRDYAYLMNPEIEEYDVLAFYILAQAAGAGFMKASREARLVVESAGAMVEDRLNVFGGEREEIMAEVLYELGSEGLRWTELADLLGSGKLKLTDLILKEGRVIIDRDEFITSFQDSIRDRSPDRLYDILVGLEVRETMISRMIMQRTEEYIGMVREMSSTVEVHPLILETAERIRETVEEIMSFTGGPVKSARPGKLVQEAFPPCIRGTLDGVRSGNRNDAIVLLLTSFISYARLYPSVFRDRTPMKVSDLDPDLRITLGEILPVIYDAADRCEPPLFEDDPQEKLNITAKLGFGVHDMPELENEGESKWYTPMSCEKIKIHLPDLCRPDKLCSSISNPLTYYNRKRWKLRSSGEKEELEHHHHHH”, “not soluble”.
